B1: Tyrosine-protein phosphatase non-receptor type 2 (Homo sapiens), P17706-1 (parent)
chain: MPTTIEREFEELDTQRRWQPLYLEIRNESHDYPHRVAKFPENRNRNRYRDVSPYDHSRVKLQNAENDYINASLVDIEEAQRSYILTQGPLPNTCCHFWLMVWQQKTKAVVMLNRIVEKESVKCAQYWPTDDQEMLFKETGFSVKLLSEDVKSYYTVHLLQLENINSGETRTISHFHYTTWPDFGVPESPASFLNFLFKVRESGSLNPDHGPAVIHCSAGIGRSGTFSLVDTCLVLMEKGDDINIKQVLLNMRKYRMGLIQTPDQLRFSYMAIIEGAKCIKGDSSIQKRWKELSKEDLSPAFDHSPNKIMTEKYNGNRIGLEEEKLTGDRCTGLSSKMQDTMEENSESALRKRIREDRKATTAQKVQQMKQRLNENERKRKRWLYWQPILTKMGFMSVILVGAFVGWTLFFQQNAL
B2: Tyrosine-protein phosphatase non-receptor type 2 (Homo sapiens), P17706-2 (parent)
chain: MPTTIEREFEELDTQRRWQPLYLEIRNESHDYPHRVAKFPENRNRNRYRDVSPYDHSRVKLQNAENDYINASLVDIEEAQRSYILTQGPLPNTCCHFWLMVWQQKTKAVVMLNRIVEKESVKCAQYWPTDDQEMLFKETGFSVKLLSEDVKSYYTVHLLQLENINSGETRTISHFHYTTWPDFGVPESPASFLNFLFKVRESGSLNPDHGPAVIHCSAGIGRSGTFSLVDTCLVLMEKGDDINIKQVLLNMRKYRMGLIQTPDQLRFSYMAIIEGAKCIKGDSSIQKRWKELSKEDLSPAFDHSPNKIMTEKYNGNRIGLEEEKLTGDRCTGLSSKMQDTMEENSESALRKRIREDRKATTAQKVQQMKQRLNENERKRKRPRLTDT

Variants of: B1
Details: with insr_human INSR

Variant | effect of a mutation on the interaction
D182A | causing an interaction

Variants of: B2
Details: with insr_human INSR

Variant | effect of a mutation on the interaction
D182A | causing an interaction

Source: IntAct's records for PubMed 15192089
